Here are results for 1 substance from article PMC4424056.

pKd: −log10 of the molar value.

Experiment [1] has as its target integrin αIIb cytoplasmic tail (αIIb CT, W988-E1008) (human) (UniProt P08514).
For experiment [2] the target is unchanged. Briefly: SPR. A general note: SPR reads the build-up and loss of mass on a sensor chip optically.

Chain of integrin αIIb cytoplasmic tail (αIIb CT, W988-E1008) (human) (P08514 1019-1039): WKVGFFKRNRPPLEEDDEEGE

The pKd is −log10 of the Kd, conventionally taken in molar units. Low readings indicate a high Kd, high ones a low Kd. In experiment [1], “filamin A immunoglobulin repeat 21 (FLNa-Ig21) (from UniProt P21333 2236-2330) (domain or fragment)” showed an inhibition by FLNa-Ig21 of the PAC1 binding of WT αIIbβ3 in CHO cells of 40%. In addition, the negative logarithm of the Kd (pKd) in experiment [2] was 3.64.
